Laboratory results taken from the RNAGym collection of RNA variant scans (doi:10.7554/elife.80360).

B1: Hammerhead Ribozyme (parent)
chain: ACCGGAUGUGCUUUCCGGUCUGAUGAGUCCGUGAGGACGAAACAG

Variants of: B1
Assay: self-cleavage, relative activity (ratio to wild type); higher = more cleavage; co-transcriptional
ACCGGACGUGCUUUCCCGUCUGAUGAGUCCGUGAGGACGAAACAG [U7C G17C] showed a self-cleavage of 0.314.
In the case of ACCGGAUUUGCUUUCCGGUCUGAUGAGUCCGUGAGGACGAAACUG [G8U A44U], the self-cleavage is reported as 0.688.
Variant ACCGGAUGUGCUUUCCGGUCUGAUGAUUCCGGGAGGACGAAACAG [G27U U32G] has a self-cleavage of 0.417.
For ACCGGAUGUUCUUUCCGGUCUGAUGAGUCCGUGAUGACGAAACAG [G10U G35U], the self-cleavage was 0.844.
AACGGAUGUGCUUUCCGGUCUGAUGAGUCCGUGAGUACGAAACAG [C2A G36U] gave a self-cleavage of 0.341.
With ACUGGAUGUGCUUUCCGGACUGAUGAGUCCGUGAGGACGAAACAG [C3U U19A] the self-cleavage was 0.385.
For ACCGGAUGUGCUUUCCGGUCUGAUGAGUCCGUGUGGUCGAAACAG [A34U A37U], the self-cleavage was 0.412.
ACCGGAUGUGCUUUCCGUUCUGAUGAGUCCGUGUGGACGAAACAG [G18U A34U] showed a self-cleavage of 0.51.
In the case of ACCGGAUGUGCUUUCCGGUCUGAUGUGUCCGUGAGGACGAAAUAG [A26U C43U], the self-cleavage is reported as 0.382.
With ACCGGAUGUGCUUUCCGGUCUGAUGAGUCCGUCAGGUCGAAACAG [G33C A37U] the self-cleavage was 0.565.
AACGGAUGUGCUUCCCGGUCUGAUGAGUCCGUGAGGACGAAACAG [C2A U14C] gave a self-cleavage of 0.397.
AGCGGAUGUGCUUUCCGGUCUGAUGAGUCGGUGAGGACGAAACAG [C2G C30G] showed a self-cleavage of 0.237.
ACCGGAUGUGCAUUCCGGUCUGAUGAGUCCGUGUGGACGAAACAG [U12A A34U] gave a self-cleavage of 1.
Work on ACCCGAUGUGCUUUCCGGUCUGAUGAGUCCGUGAGGAGGAAACAG [G4C C38G] yielded a self-cleavage of 0.346.
ACCGGAUGUACUUUCCAGUCUGAUGAGUCCGUGAGGACGAAACAG [G10A G17A] gave a self-cleavage of 0.81.
ACCGGAUGUGCUUUCCGGUCUGAUGAGCCCGUGAGGACGAAGCAG [U28C A42G] gave a self-cleavage of 0.251.
In the case of ACCAGAUGUGCCUUCCGGUCUGAUGAGUCCGUGAGGACGAAACAG [G4A U12C], the self-cleavage is reported as 0.305.
For ACCGGAUGUGCUUUCCGGUCUGAUGAGUCCGGGAGGACGAAAUAG [U32G C43U], the self-cleavage was 0.43.
ACCGGAUCUGCUUUCCGGUAUGAUGAGUCCGUGAGGACGAAACAG [G8C C20A] gave a self-cleavage of 0.461.
ACCGGAUGUGCUUUCCGGUCUGAUGACUCCAUGAGGACGAAACAG [G27C G31A] gave a self-cleavage of 0.885.
In the case of ACCGGAUGUGCUUUCCGGUCUGAUGACUCCGUGAGGACGAGACAG [G27C A41G], the self-cleavage is reported as 0.457.
For ACCGGAUGUGCUUUCCGGUCUGUUUAGUCCGUGAGGACGAAACAG [A23U G25U], the self-cleavage was 0.315.
Work on ACCGGAUGUGCUUUCCGGUCUGAUGAGUCCGUGACGACGCAACAG [G35C A40C] yielded a self-cleavage of 0.466.
For ACCGGAUGUGCUUUGUGGUCUGAUGAGUCCGUGAGGACGAAACAG [C15G C16U], the self-cleavage was 0.58.
Variant ACAGGAUGGGCUUUCCGGUCUGAUGAGUCCGUGAGGACGAAACAG [C3A U9G] has a self-cleavage of 0.327.
In the case of ACCGGAUGUGCUUUCCGGUCUGAUGUGGCCGUGAGGACGAAACAG [A26U U28G], the self-cleavage is reported as 0.437.
In the case of ACCGGCUGUGCUUUCCGGUCUGAUGAGUCCGUGAGGACGGAACAG [A6C A40G], the self-cleavage is reported as 0.38.
In the case of UCCGGAUGUGCUUUCCGGUCUGAUGAGUCCGUGAGGACGAAGCAG [A1U A42G], the self-cleavage is reported as 0.351.
In the case of ACCGGAUGUGCUUUCCGCUAUGAUGAGUCCGUGAGGACGAAACAG [G18C C20A], the self-cleavage is reported as 0.285.
In the case of ACCGGAUGUGCUUUCCGUUCUAAUGAGUCCGUGAGGACGAAACAG [G18U G22A], the self-cleavage is reported as 0.344.
ACCGGAUGUGCUUUCCGGUCAGAUGAGCCCGUGAGGACGAAACAG [U21A U28C] showed a self-cleavage of 0.529.
Work on ACAGGAUGUGCGUUCCGGUCUGAUGAGUCCGUGAGGACGAAACAG [C3A U12G] yielded a self-cleavage of 0.487.
ACCGGAUGUGCUUUCCGGUCUGGUGAGUCCGUGAGGACGAGACAG [A23G A41G] gave a self-cleavage of 0.334.
With ACUGGAUGUGCUUUCCGGUCUGAUGAGUCCGUGAGGACGUAACAG [C3U A40U] the self-cleavage was 0.36.
ACCGGAUGUGCUUUCCGGUUUGAUGAGUUCGUGAGGACGAAACAG [C20U C29U] showed a self-cleavage of 0.395.
AGCGGAUGUGCUUUCCGGUCUGAUGAGUCCGUGGGGACGAAACAG [C2G A34G] showed a self-cleavage of 0.279.
In the case of ACCGCAUGUGCUUUCCGGUCGGAUGAGUCCGUGAGGACGAAACAG [G5C U21G], the self-cleavage is reported as 0.367.
For ACCGGAUGUGCUUUCCGGUCUGAUGAGUCCGUAAGGACCAAACAG [G33A G39C], the self-cleavage was 0.503.
Variant ACCGGAUGUGCUUUCCGGUCUGAUUAGUCCGUGAGGUCGAAACAG [G25U A37U] has a self-cleavage of 0.302.
In the case of ACCGGAUGUGCUUUCCGGUCUGAUGAGUGAGUGAGGACGAAACAG [C29G C30A], the self-cleavage is reported as 0.432.
With ACCGGAUGUGCUUUCCGGUGUGAUGAGUCCGUGACGACGAAACAG [C20G G35C] the self-cleavage was 0.361.
Variant ACGGGAUGUGCUUUCCGGUUUGAUGAGUCCGUGAGGACGAAACAG [C3G C20U] has a self-cleavage of 0.26.
ACCGGAUGUGCUUUCCGGUCUGAUGAGUUCGUGAGGACGAAACCG [C29U A44C] gave a self-cleavage of 0.44.
In the case of ACAGGCUGUGCUUUCCGGUCUGAUGAGUCCGUGAGGACGAAACAG [C3A A6C], the self-cleavage is reported as 0.335.
Variant ACCGGAUGUGCUUUCCGGUCUGAUGAGUAUGUGAGGACGAAACAG [C29A C30U] has a self-cleavage of 0.41.
Work on ACCGGAUGUGCUUUCCGGUCUGAUGAGUCCGGGUGGACGAAACAG [U32G A34U] yielded a self-cleavage of 1.19.
With ACCGGAUGUGCUUUCCGGUCUCAUGAGUCCGUGAGGACGAAACAU [G22C G45U] the self-cleavage was 0.384.
Variant ACCGGAUGUGCUUUUCGUUCUGAUGAGUCCGUGAGGACGAAACAG [C15U G18U] has a self-cleavage of 0.643.
ACCGGAUGUGCUUUCCGGUCUGAUGAGUCGGUGAGGACGAGACAG [C30G A41G] gave a self-cleavage of 0.349.
With ACCGGAUGUGCUUUCCUGUCUGAUGAGUCCGUGAGGACGGAACAG [G17U A40G] the self-cleavage was 0.388.
ACCGGAUGCGCUUUCCGGUCUGUUGAGUCCGUGAGGACGAAACAG [U9C A23U] showed a self-cleavage of 0.358.
ACCGGAUGUGCUUUCCGGUCUGAUGAGUCCGCGACGACGAAACAG [U32C G35C] showed a self-cleavage of 0.647.
In the case of ACCGGAUGUGCUUUCCGGUCUGAUGAGUCAGUGAGGGCGAAACAG [C30A A37G], the self-cleavage is reported as 0.586.
Work on ACCGGCUGCGCUUUCCGGUCUGAUGAGUCCGUGAGGACGAAACAG [A6C U9C] yielded a self-cleavage of 0.486.
In the case of ACCGGAUGUGAUUUCCGGUCUGCUGAGUCCGUGAGGACGAAACAG [C11A A23C], the self-cleavage is reported as 0.491.
With ACCGGAUGUGCUUUCGGGUCUGAUGAGUCCGUGAGGACCAAACAG [C16G G39C] the self-cleavage was 0.368.
Work on ACCGGAUGUGCUUUCCGGUCAGAUGAGUCCGUGAUGACGAAACAG [U21A G35U] yielded a self-cleavage of 0.466.
